{"source": "patent US20040005647A1", "about": "(University of California, published 2004)", "binders": {"B1": {"name": "anti-MUC-1 12E scFv (scFv)", "scFv": "QVKLQQSGTEVVKPGASVKLSCKASGYIFTSYDIDWVRQTPEQGLEWIGWIFPGEGSTEYNEKFKGRATLSVDKSSSTAYMELTRLTSEDSAVYFCARGDYYRRYFDLWGQGTTVTVSSRGGGSGGGGSGGGGSDIELTQSPAIMSASPGERVTMTCSASSSIRYIYWYQQKPGSSPRLLIYDTSNVAPGVPFRFSGSGSGTSYSLTINRMEAEDAATYYCQEWSGYPYTFGGGTKLELKRAAAGAPVPYPDPLEPRAA", "notes": "As printed it begins with a vector leader and ends with the E-tag; Mouse scFv from pCANTAB 5E, expressed in E. coli; also called clone 12E"}, "B2": {"name": "125I-anti-MUC-1 12E scFv, 42 kD fraction (divalent, considered a diabody) (scFv)", "scFv": "B1 scFv", "modifications": "125I-labelled (Chloramine T method)", "notes": "HPLC (SEC-2000) fraction of iodinated 12E scFv, considered to be a diabody (divalent); also called bivalent form of the 12E scFv"}, "B3": {"name": "125I-anti-MUC-1 12E scFv, 25 kD fraction (monovalent) (scFv)", "scFv": "B1 scFv", "modifications": "125I-labelled (Chloramine T method)", "notes": "HPLC (SEC-2000) fraction of iodinated 12E scFv, representative of the monovalent scFv; also called monomeric form of the 12E scFv"}, "B4": {"name": "anti-MUC-1 C4 scFv (scFv)", "scFv": "QVQLQESGPGLVQPSQSLSITCTVSGFSLTAYGVHWIRQSPGKGLEWLGVIWSGGGTDYNPAFISRLNINKDNSKSQVFFKVDSLQLDDRGIYYCVRRNGYFFDSWGQGTTVTVSSSGRFSGGGSGGGGSDIELTQSPASLLCLWGRGPPSHAGPTMVVSTSGYNFIYWSQQKPGQSPKLLIYLSSNLESGVPARVSGSGSRTYFTLNIHPVEEEDAATFYCRHTRELPCTFGGRTKLEIKRAAAGAPVPYPDPLEPRAA"}, "B5": {"name": "anti-MUC-1 3D scFv (scFv, V domains shown)", "VH": "QVKLQESGPEVVKPGASVKLSCKASGYIFTSYDIDWVRQTPEQGLEWIGWIFPGEGSTEYNEKFKGRATLSVDKSSSTAYMELTRLTSEDSAVYFCARGDYYRRYFDLWGQGTTVTVSS", "notes": "After the linker stands a short composite of N- and C-terminal pieces of a VL, with no light-chain loops; also called clone 3D"}, "B6": {"name": "B5 scFv (scFv)", "scFv": "MAQVKLQESGAELVRPGASVTLSCKASGYTFTDYEMHWVKQTPVHGLEWIGAIDPETGGTAYNQKFKGKATLTADKSSSTAYMELRSLTSEDSAVYYCTRDGYYAWFAYWGQGTTVTVSSGGGGLGGGGSGGGGSDIELTQSPAIMSASPGERVTMTCSASSSIRYIYWYQQKPGSSPRLLIYDTSNVAPGVPFRFSGSGSGTSYSLTINRMEAEDAATYYCQEWSGYPYTFGGGTKLELKRAAAGAPVPYPDPLEPRAA", "notes": "The sheet prints only the panel letter G"}}, "key": {"[1]": {"target": "T1, MUC-1 antigen expressed on MCF-7 human breast adenocarcinoma cells (human, UniProt P15941 24-1255)", "T1 construct": "whole, on cells; Scatchard analysis and immunocytochemistry used MCF-7 cells; also called MUC-1 mucin; MUC-1 membrane antigen", "T1 sequence (P15941 24-1255)": "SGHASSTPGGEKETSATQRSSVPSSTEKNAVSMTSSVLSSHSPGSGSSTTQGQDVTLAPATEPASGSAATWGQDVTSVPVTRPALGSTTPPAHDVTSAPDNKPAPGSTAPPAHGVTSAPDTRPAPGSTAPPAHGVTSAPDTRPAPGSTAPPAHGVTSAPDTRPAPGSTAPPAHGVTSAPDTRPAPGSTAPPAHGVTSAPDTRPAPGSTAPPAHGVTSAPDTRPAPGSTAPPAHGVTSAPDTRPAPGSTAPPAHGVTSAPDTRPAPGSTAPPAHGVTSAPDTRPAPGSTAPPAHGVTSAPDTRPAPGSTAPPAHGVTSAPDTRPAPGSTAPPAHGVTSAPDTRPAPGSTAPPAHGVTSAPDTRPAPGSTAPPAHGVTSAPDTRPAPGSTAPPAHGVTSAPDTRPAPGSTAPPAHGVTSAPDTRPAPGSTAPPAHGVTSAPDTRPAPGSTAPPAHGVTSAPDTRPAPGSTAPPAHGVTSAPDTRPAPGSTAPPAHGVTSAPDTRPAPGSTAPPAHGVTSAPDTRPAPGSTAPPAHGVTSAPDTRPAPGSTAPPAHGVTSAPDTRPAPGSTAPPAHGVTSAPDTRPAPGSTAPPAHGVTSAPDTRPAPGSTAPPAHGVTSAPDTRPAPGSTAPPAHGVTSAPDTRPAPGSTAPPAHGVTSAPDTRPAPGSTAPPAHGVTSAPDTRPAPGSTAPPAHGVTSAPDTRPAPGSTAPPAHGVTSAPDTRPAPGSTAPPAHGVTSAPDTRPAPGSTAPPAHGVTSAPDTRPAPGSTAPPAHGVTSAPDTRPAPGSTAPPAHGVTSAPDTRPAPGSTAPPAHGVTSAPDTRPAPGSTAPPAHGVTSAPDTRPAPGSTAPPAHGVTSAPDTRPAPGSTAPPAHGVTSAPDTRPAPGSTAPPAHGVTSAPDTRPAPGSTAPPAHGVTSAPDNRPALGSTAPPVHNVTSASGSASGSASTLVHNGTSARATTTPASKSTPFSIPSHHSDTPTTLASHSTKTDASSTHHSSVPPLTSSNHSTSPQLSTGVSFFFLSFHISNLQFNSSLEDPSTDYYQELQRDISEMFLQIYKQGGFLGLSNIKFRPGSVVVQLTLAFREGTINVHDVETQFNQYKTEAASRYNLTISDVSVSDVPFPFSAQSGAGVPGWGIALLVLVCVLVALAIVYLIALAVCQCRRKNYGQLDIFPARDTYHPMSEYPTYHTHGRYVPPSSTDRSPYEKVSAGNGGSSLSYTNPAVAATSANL", "assay": "linear regression of competitive ELISA data", "procedure": "(§1) Competitive ELISA analysis was performed in triplicate at each concentration. Incubations were carried out at 37EC for 1.5 hrs. Following each incubation, the plates were washed with PBS pH 7.4 containing 0.5% Tween 20 followed by PBS washes alone. Pro-Bind™ ELISA assay plates (Becton Dickinson Labware, Franklin Lakes, N.J.) were coated overnight at room temperature with the MCF-7 cell lysate (200 μg/well) in 15 mM sodium bicarbonate buffer pH 9.6. The ELISA plates were rinsed with PBS and blocked with PBS containing 3.0% dried non-fat milk for 1 hr. at room temperature. Ten percent bovine serum albumin (BSA) was used as a negative control. In a separate plate, soluble scFv containing 10% Tween 20 were prepared and stored on ice for 15 minutes. MCF-7 cell Tysate used as the competitor was diluted in 3% non-fat milk to provide the following concentrations 100 nM, 10 nM and 1 nM. The soluble scFv was transferred to the ELISA plate and incubated with the competitor. 100 μl of anti-E-tag diluted 1:250 in 3% non-fat milk solution was added to the wells and the plate incubated. The plate was developed with 2,2′-Amino-bis-3-ethylbenzthiazoline-6-sulfonic acid (ABTS) (Sigma-Aldrich, St. Louis, Mo.) containing 0.3% H₂O₂. The plate was read using a microplate reader at an absorbency of A₄₀₅ nM (Dynex, Chantilly, Va.). Data was generated from three separate trials and analyzed."}, "[2]": {"target": "T1, MUC-1 antigen expressed on MCF-7 human …", "assay": "competitive ELISA: scFv on plated MCF-7 lysate, soluble MCF-7 lysate (MUC-1) as competitor at 1 nM", "procedure": "as §1"}, "[3]": {"target": "T1, MUC-1 antigen expressed on MCF-7 human …", "assay": "Scatchard analysis, 125I-12E scFv on MCF-7 cells with unlabeled competitor; 42 kD fraction, diabody (divalent)"}, "[4]": {"target": "T1, MUC-1 antigen expressed on MCF-7 human …", "assay": "Scatchard analysis, 125I-12E scFv on MCF-7 cells with unlabeled competitor; 25 kD fraction, monovalent"}, "[5]": {"target": "T1, MUC-1 antigen expressed on MCF-7 human …", "assay": "competitive ELISA regression, second experiment", "procedure": "as §1"}, "[6]": {"target": "T1, MUC-1 antigen expressed on MCF-7 human …", "assay": "competitive ELISA regression, third experiment (not statistically significant)", "procedure": "as §1"}, "[7]": {"target": "T1, MUC-1 antigen expressed on MCF-7 human …", "assay": "competitive ELISA regression, estimates of single experiments", "procedure": "as §1"}, "[8]": {"target": "T1, MUC-1 antigen expressed on MCF-7 human …", "assay": "immunohistochemistry on a section of the same prostate cancer; biotinylated anti-mouse antibody and colour reagent", "excerpt": "FIG. 4 illustrates staining of prostate cancer using three of the scFv described herein. The scFv is placed on the tissue on the slide and then washed off followed with a biotinylated anti mouse antibody for reaction with any bound scFv and then with a color reagent."}}, "note": "“And” between values parts separate entries of the source, which are not always exact repeats. Equal values may be shown once."}
{"binder": "B1", "values": [{"measurement": "Ka", "setting": "[1]", "value": "1.7e+08 M⁻¹ and > 1e+08 M⁻¹"}, {"measurement": "percent inhibition of binding with 1 nM of competitor", "setting": "[2]", "value": 50, "unit": "%"}]}
{"binder": "B2", "values": [{"measurement": "Ka", "setting": "[3]", "value": "~1.7e+08", "unit": "M⁻¹"}]}
{"binder": "B3", "values": [{"measurement": "Ka", "setting": "[4]", "value": "8.6e+07", "unit": "M⁻¹"}]}
{"binder": "B4", "values": [{"measurement": "Ka", "setting": "[5]", "value": "2.3e+08", "unit": "M⁻¹"}, {"measurement": "Ka", "setting": "[6]", "value": "1.01e+09", "unit": "M⁻¹"}, {"measurement": "percent inhibition of binding with 1 nM of competitor", "setting": "[2]", "value": 94, "unit": "%"}]}
{"binder": "B5", "values": [{"measurement": "Ka", "setting": "[1]", "value": "2.2e+08 M⁻¹ and > 1e+08 M⁻¹"}, {"measurement": "Ka", "setting": "[7]", "value": "1.2e+08 to 1.5e+08", "unit": "M⁻¹"}, {"measurement": "percent inhibition of binding with 1 nM of competitor", "setting": "[2]", "value": 50, "unit": "%"}]}
{"binder": "B6", "values": [{"measurement": "binding result", "setting": "[8]", "value": "binds"}]}
